The record followed here is US20230272445A1.

The assay has as its target purified active porcine pancreatic elastase (porcine) (UniProt P00772). In words: cell-based or functional assay.
UniProt P00772, sequence (P00772 27-266 limits assumed): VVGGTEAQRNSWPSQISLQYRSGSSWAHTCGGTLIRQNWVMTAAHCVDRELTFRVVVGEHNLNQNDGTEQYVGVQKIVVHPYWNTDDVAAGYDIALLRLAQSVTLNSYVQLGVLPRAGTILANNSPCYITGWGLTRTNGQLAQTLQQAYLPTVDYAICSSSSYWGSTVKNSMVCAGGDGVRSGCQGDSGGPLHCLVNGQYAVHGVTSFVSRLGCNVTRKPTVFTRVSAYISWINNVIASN

In turn, “plasma-derived human alpha-1-antitrypsin (Prolastin-C) (from UniProt P01009 25-418)” had an A1AT concentration at which a decrease in elastase activity was detected greater than 0.1 µM.
